Measured values reported in patent US20030082135A1, “Pathway of RANTES-mediated chemokine synthesis in astrocytes and methods of use therefor” (priority 2001, published 2003).
Each block holds one molecule with its values, some of them ahead of it.

Tests used:
[1] = system: primary neonatal mouse astrocyte cultures; assay: RNase protection assay (RPA) for chemokine/cytokine transcripts in astrocyte cultures; assay type: cell-based
Method: Astrocyte isolation and culture. […] RNA isolation and RNase protection assay (RPA). […] RNase protection assays (RPA) for chemokine message were conducted with multi-probe templates according to the manufacture's protocol (RiboQuant assay kit, BD-PharMingen, San Diego, Calif.). Gels were scanned and radioactive bands quantitated using a phosphoimager (Molecular Dynamics, Sunnyvale, Calif.). Levels of uniformly expressed housekeeping genes large ribosomal subunit protein 32-3A (L32) or glyceraldehyde-3-phosphate dehydrogenase (GAPDH), were used for normalization. The value of each chemokine receptor band divided by the value of the indicated housekeeping gene band in the same sample yielded the relative intensity. Normalized receptor expression represents the ratio of the relative intensity following treatment with chemokine versus the relative intensity of medium alone. Treatment with pharmacological inhibitors. Astrocytes were washed and resuspended in serum-and insulin-free complete medium and starved overnight. Cells were treated at 37° C. for 1 h with 100 ng/ml Pertussis toxin (PTx) before addition of RANTES or IL-1. […] The cells were harvested after a 3 h incubation with RANTES; RNA was prepared and assayed by RPA.

PKA = PKA activity assay on lysates of treated astrocytes; assay type: cell-based, mouse
Method: PKA activity assay. PKA activity was determined using a commercially available kit (Calbiochem, San Diego, Calif.) according to manufacturer's recommendations. Primary mouse astrocytes were grown in 6-well plates and then stimulated as described and lysed in 100 μl buffer (same buffer used for Western blotting) for 30 min. Five μl of the lysates were incubated with 20 μl PKA reaction mixture at 30° C. for 30 min. The reaction was terminated by adding 10 μl stop solution and ^32P radioactivity was counted.

astrocytes [2] = system: astrocytes
[3] = system: MEK, ERK1/2, p90RSK, p38, SAPK/JNK phosphorylation in astrocytes; assay: Western blotting of phosphorylated MAP kinase pathway proteins in astrocyte lysates; assay type: cell-based, mouse
Method: SDS-PAGE and Western blotting. Astrocytes were treated for the indicated time with media or 100 ng/ml RANTES, eotaxin, or other materials as indicated. Cells (3×10^5 in Examples 1-3, or 2×10^4 in later Examples) were resuspended in 100 μl buffer (50 mM HEPES, pH 7.5, 150 mM NaCl, 2 mM EDTA, 2 mM EGTA, 1% Triton X-100, 50 mM Sodium fluoride, 5 mM Sodium pyrophosphate, 50 mM Sodium β-glycerophosphate, 1 mM Sodium Ortho-vanadate, 1 mM DTT, 1 mM PMSF, 10 μg/ml Leupeptin, and 10 μg/ml Aprotinin). Protein concentration of the whole cell extract was determined by BCA protein assay kit (Pierce, Rockford, Ill.). Samples (10 μg) were loaded and separated on a 10% SDS-polyacrylamide gel. After transfer to Hybond ECL nitrocellulose membrane (Amersham Pharmacia Biotech Inc, Piscataway, N.J.) or Zeta-probe blotting membranes (Bio-Rad, Richmond Calif.) blots were blocked overnight with 5% BSA at 4° C., and probed with the antibody indicated. Antibody against unphosphorylated or phosphorylated erk (Cell Signaling, Beverly, Mass.) was used at 1 μg/ml. Appropriate anti-immunoglobulin reagents were used to develop the blots by enhanced chemiluminescence (Amersham Pharmacia Biotech Inc, Piscataway, N.J.).
Little is known about the signaling mechanisms involved in astrocyte respones to chemokines. To examine components of the RANTES signal transduction pathway, phosphorylation of the MAP kinase kinase (MEK) and mitogen activated protein (MAP) kinases was examined. To minimize basal kinase activity, astrocytes were starved of serum for at least 3 h before treatment with chemokine. Whole cell lysates were separated by SDS-PAGE and examined by Western blot. Antibodies that specifically react with phosphorylated MEK or phosphorylated extracellular signal-related kinase (ERK) were used to detect the active kinases.

[4] = system: CXCR4, CX3CR1, CCR1, CCR5 transcripts in astrocytes; assay: RPA for chemokine receptor transcripts in astrocytes; assay type: cell-based, mouse; conditions: average, pooled results of 3-4 experiments
Method: RNA isolation and RNase protection assay (RPA). RNA was prepared as in Luo, Y., et al. 1999. J Immunol 163:3985. RNase protection assays (RPA) for chemokine message were conducted with multi-probe templates according to the manufacture's protocol (RiboQuant assay kit, BD-PharMingen, San Diego, Calif.). Gels were scanned and radioactive bands quantitated using a phosphoimager (Molecular Dynamics, Sunnyvale, Calif.). Levels of uniformly expressed housekeeping genes large ribosomal subunit protein 32-3A (L32) or glyceraldehyde-3-phosphate dehydrogenase (GAPDH), were used for normalization. The value of each chemokine receptor band divided by the value of the indicated housekeeping gene band in the same sample yielded the relative intensity. Normalized receptor expression represents the ratio of the relative intensity following treatment with chemokine versus the relative intensity of medium alone.
Treatment with the RANTES-related chemokines RANTES or eotaxin, or with TNF-α also found to down-regulate expression of CX3CR1 transcripts. In addition, CXCR4 mRNA levels were decreased, while the levels of CCR1 transcripts were elevated. In contrast, little or no regulation of CCR5 was noted. The pooled results of 3-4 experiments indicate eotaxin caused an average 60% decrease in CXCR4 (P less than 0.01) and a 70% decrease in CX3CR1 mRNA (P less than 0.02) (FIG. 8.B). The effects of RANTES stimulation were similar with an average 70 and 90% reduction in CXCR4 and CX3CR1 transcripts, respectively (P less than 0.01).

[5] = system: cultured mouse astrocytes; assay: RT-PCR for KC message in astrocytes; assay type: cell-based
astrocytes [6] = assay: ELISA of KC, TNF-α and MCP-1 protein in astrocyte culture supernatants; assay type: cell-based, mouse; conditions: 48 h, 1.5 to 100 ng/ml tested

Molecule: O=C1Nc2ccc(I)cc2/C1=C/c1cc(Br)c(O)c(Br)c1 [Raf-1 inhibitor, reference compound]
effect on RANTES-induced chemokine/cytokine gene expression ([1]; increasing doses, 1 h pretreatment, 100 ng/ml RANTES 3 h): blocked gene expression in a dose dependent fashion | effect on PKA activity (PKA): neither U0126 nor Raf-1 inhibitor decreased PKA activity | effect on astrocyte viability or expression of the housekeeping genes L32 and GAPDH (astrocytes [2]): failed to affect | effect on MEK and erk1/2 phosphorylation induced by RANTES [3]: blocked

production of chemokine transcripts by astrocytes from mice deficient for CCR1, CCR2, CCR3, or CCR5 ([1]; 100 ng/ml): specifically responded | expression of TNF-α, RANTES, KC, MIP-1α, MIP-2, and MCP-1 transcripts ([1]; BALB/cJ neonatal astrocytes, chemokine for 6 h): up-regulated | decrease in CX3CR1 mRNA [4]: 70% | decrease in CXCR4 mRNA [4]: 60%
B1: eotaxin: recombinant mouse chemokine, RANTES-related, purchased from R&D System (protein, UniProt P48298 24-97, looked up)
Eotaxin: HPGSIPTSCCFIMTSKKIPNTLLKSYKRITNNRCTLKAIVFKTRLGKEICADPKKKWVQDATKHLDQKLQTPKP
ability to induce chemokine transcripts after boiling ([1]; boiled for 30 min before incubation with astrocytes): completely destroyed | synthesis of KC message [5]: induce synthesis of KC message | concentration inducing KC protein (astrocytes [6]): ≥ 25 ng/mL
